Data on one molecule can be found in patent US20240342207, “MODIFIED NUCLEIC ACID COMPOSITIONS AND ASSOCIATED METHODS FOR TREATMENT OF PHENYLKETONURIA” (BOARD OF REGENTS, THE UNIVERSITY OF TEXAS SYSTEM, published 2024).

What all share (details): tags: His-tag, E. coli; stem-loop
For data set [1], the target named is T1, PAH Y417H (Homo sapiens, UniProt P00439 P00439:1-452, Y417H).
T1 sequence: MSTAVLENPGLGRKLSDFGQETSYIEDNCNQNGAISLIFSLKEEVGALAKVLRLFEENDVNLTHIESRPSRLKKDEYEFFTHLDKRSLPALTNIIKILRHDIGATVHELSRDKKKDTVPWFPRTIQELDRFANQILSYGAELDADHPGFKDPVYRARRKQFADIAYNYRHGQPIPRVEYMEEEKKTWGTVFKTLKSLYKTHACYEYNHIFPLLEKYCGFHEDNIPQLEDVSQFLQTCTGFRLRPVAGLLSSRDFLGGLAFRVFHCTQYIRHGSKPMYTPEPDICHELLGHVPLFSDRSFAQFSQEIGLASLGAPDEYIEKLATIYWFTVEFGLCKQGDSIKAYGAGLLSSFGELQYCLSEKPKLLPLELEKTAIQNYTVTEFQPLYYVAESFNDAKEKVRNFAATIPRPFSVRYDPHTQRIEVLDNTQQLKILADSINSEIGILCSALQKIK
The data set is described as follows: EMSA; one of 13 of 17 binding mutants (identity from p198 list). An excerpt:
(§1) It was reasoned that supplementing lncRNAs might improve the catalytic activities of the PAH mutants, leading to reduced serum Phe concentrations and improved symptoms in patients with PKU. Scramble (Scr) and HULC mimics representing wild-type HULC nt. 181-201 and HULC A191G mutated sequences were designed for the following studies. 17 PAH mutants that were identified from patients with PKU and are known to affect the enzymatic activity of PAH (21, 22) were selected, and bacterially-expressed wild-type and mutant PAH (FIG. 10 and see FIG. S13A in Li et al. 2021) were collected. […] The denatured wild-type PAH proteins were included as a negative control.
(§2) RNA Electrophoretic Mobility Shift Assay (EMSA). The gel mobility shift assay was performed as previously described (42). Briefly, 500 ng recombinant His-tagged wild-type PAH or mutants were incubated with 0.035 μmol labeled probe in a RNA-protein binding buffer [(50 mM Tris-HCl 7.9, 10% glycerol, 100 mM KCl, 5 mM MgCl₂, 10 mM (3-ME, 0.1% NP40] for 30 min at 30° C. For cold RNA competition, 0.035 μmol radiolabeled RNA probes were first mixed with 7 μmol cold RNA competitors and then subjected to the gel shift assay.

In data set [2] the target is T2, PAH Y414C (Homo sapiens, UniProt P00439 P00439:1-452, Y414C).
T2 sequence: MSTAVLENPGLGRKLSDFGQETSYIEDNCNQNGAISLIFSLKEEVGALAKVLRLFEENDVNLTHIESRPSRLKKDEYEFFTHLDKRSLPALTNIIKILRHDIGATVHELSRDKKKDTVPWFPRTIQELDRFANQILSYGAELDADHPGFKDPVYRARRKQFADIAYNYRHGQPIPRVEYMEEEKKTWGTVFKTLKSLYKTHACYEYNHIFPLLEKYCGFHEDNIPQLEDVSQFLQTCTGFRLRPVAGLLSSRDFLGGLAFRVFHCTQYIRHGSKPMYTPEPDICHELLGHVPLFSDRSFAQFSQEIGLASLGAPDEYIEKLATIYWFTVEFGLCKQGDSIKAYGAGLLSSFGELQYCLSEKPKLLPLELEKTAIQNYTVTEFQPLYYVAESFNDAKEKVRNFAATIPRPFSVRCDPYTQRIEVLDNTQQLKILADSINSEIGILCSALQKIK
Described as above.
From the text: as §1, §2

In data set [3] the target is T3, PAH R157N (Homo sapiens, UniProt P00439 P00439:1-452, R157N).
T3 sequence: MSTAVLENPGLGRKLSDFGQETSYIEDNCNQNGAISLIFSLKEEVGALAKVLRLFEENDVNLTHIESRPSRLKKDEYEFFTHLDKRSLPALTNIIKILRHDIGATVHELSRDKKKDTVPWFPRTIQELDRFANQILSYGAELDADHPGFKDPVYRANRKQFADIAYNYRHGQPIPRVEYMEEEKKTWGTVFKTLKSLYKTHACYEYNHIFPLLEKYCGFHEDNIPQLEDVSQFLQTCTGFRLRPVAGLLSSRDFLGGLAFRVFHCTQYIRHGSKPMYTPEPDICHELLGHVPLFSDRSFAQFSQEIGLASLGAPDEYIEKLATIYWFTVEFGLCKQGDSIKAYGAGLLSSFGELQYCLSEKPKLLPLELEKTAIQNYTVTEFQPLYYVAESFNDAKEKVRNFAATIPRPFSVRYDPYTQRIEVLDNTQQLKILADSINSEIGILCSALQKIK
The data set can be described thus: EMSA; also decreased affinity in quantified assay.
From the text: as §1, §2
On the technique in general: A gel shift assay detects complexes by their altered migration in electrophoresis.

With CAAAAUGCAUAUGUAUCUUUG (ssRNA) [HULC 181-201 mimic], the binding result is “binds” in data set [1], “binds” in data set [2] and “no binding” in data set [3].
